Test results reported in patent US20150098990A1.

Assays:
[1] = biological target: mouse dorsal root ganglion (DRG) neurons (surface proteins that the peptides bind are not identified) (mouse (C57BL/6)); test: phage binding to cultured DRG neurons, anti-fd immunostaining, confocal microscopy
[2] = biological target: mouse dorsal root ganglion (DRG) neurons (surface proteins that the peptides bind are not identified) (mouse (C57BL/6)); test: double staining of isolated DRG neurons incubated with DRG-p1 and GST-DRG3, antibodies against phage and GST
[3] = biological target: mouse dorsal root ganglion (DRG) neurons (surface proteins that the peptides bind are not identified) (mouse (C57BL/6)); test: synthetic peptide DRG1 at 10^-4 M; competitor phage DRG-p1 on cultured DRG neurons, anti-fd immunostaining
[4] = biological target: mouse dorsal root ganglion (DRG) neurons (surface proteins that the peptides bind are not identified) (mouse (C57BL/6)); test: synthetic peptide DRG1 at 10^-6 M; competitor phage DRG-p1 on cultured DRG neurons, anti-fd immunostaining
[5] = biological target: mouse dorsal root ganglion (DRG) neurons (surface proteins that the peptides bind are not identified) (mouse (C57BL/6)); test: synthetic peptide DRG3 at 10^-4 M; competitor phage DRG-p3 on cultured DRG neurons, anti-fd immunostaining
[6] = biological target: mouse dorsal root ganglion (DRG) neurons (surface proteins that the peptides bind are not identified) (mouse (C57BL/6)); test: synthetic peptide DRG3 at 10^-6 M; competitor phage DRG-p3 on cultured DRG neurons, anti-fd immunostaining
[7] = biological target: mouse dorsal root ganglion (DRG) neurons (surface proteins that the peptides bind are not identified) (mouse (C57BL/6)); test: synthetic peptide DRG2 at 10^-6 M; competitor phage DRG-p2 on cultured DRG neurons, anti-fd immunostaining
[8] = biological target: mouse dorsal root ganglion (DRG) neurons (surface proteins that the peptides bind are not identified) (mouse (C57BL/6)); test: synthetic peptide DRG2 at 10^-4 M; competitor phage DRG-p2 on cultured DRG neurons, anti-fd immunostaining

In the case of “phage clone DRG-p2 (M13 phage displaying the DRG2 peptide DGPWRKM on pIII)”, the percent of DRG neurons bound [1] is reported as 43%.

Molecule “phage clone DRG-p1 (M13 phage displaying the DRG1 peptide SPGARAF on pIII)” has a percent of GST-DRG3-positive neurons with double positive staining [2] of 71% and a percent of DRG neurons bound [1] of 38%.

With “phage clone DRG-p3 (M13 phage displaying the DRG3 peptide FGQKASS on pIII)” the percent of DRG neurons bound [1] was 29%.

B1: synthetic peptide DRG1: SPGARAF (peptide)
peptide: SPGARAF
With B1 the percent of anti-phage staining blocked [3] was 97% and the percent of anti-phage staining blocked [4] was 47%.

B2: synthetic peptide DRG3: FGQKASS (peptide)
peptide: FGQKASS
With B2 the percent of anti-phage staining blocked [5] was 94% and the percent of anti-phage staining blocked [6] was 53%.

B3: synthetic peptide DRG2: DGPWRKM (peptide)
peptide: DGPWRKM
B3 was tested, and the percent of anti-phage staining blocked [7] was 54% and the percent of anti-phage staining blocked [8] was 94%.
